From paper PMC3181223

Key:
P68135 = assay: depolymerisation of single filaments in a microfluidic flow (fluorescence microscopy); filaments grown from MgATP-actin, depolymerised in F-buffer (pH 7.8, 100 mM KCl, 1 mM MgCl2); velocities from an exponential fit of 1/vdepol against the age of F-actin, and from a direct fit of length …; details: other: depolymerisation of single filaments in a microfluidic flow (fluorescence microscopy)
[1] = molecular target: Actin purified from rabbit muscle (rabbit) (UniProt P68135); assay: depolymerisation of single filaments in a microfluidic flow (fluorescence microscopy); filaments grown from MgATP-actin, depolymerised in F-buffer (pH 7.8, 100 mM KCl, 1 mM MgCl2); velocities from an exponential fit of 1/vdepol against the age of F-actin, and from a direct fit of length against time; room temperature
[2] = molecular target: Actin purified from rabbit muscle (rabbit) (UniProt P68135); assay: depolymerisation of single filaments in a microfluidic flow (fluorescence microscopy); MgADP-actin filaments depolymerising at different profilin concentrations; saturation curve of the off-rate fitted assuming profilin in rapid equilibrium with the barbed end; room temperature
[3] = molecular target: Actin purified from rabbit muscle (rabbit) (UniProt P68135); assay: depolymerisation of single filaments in a microfluidic flow (fluorescence microscopy); CrATP-actin filaments (as ADP-Pi-actin) depolymerising at different profilin concentrations; saturation curve of the off-rate fitted assuming profilin in rapid equilibrium with the barbed end; room temperature

For Actin purified from rabbit muscle, the “global depolymerization velocity of ADP-Pi-actin subunits at the barbed end (direct fit of length against time)” value (P68135) was 1.5 subunits/s and the “global depolymerization velocity of ADP-Pi-actin subunits at the barbed end (dissociation as ADP-Pi-actin, or Pi release and then dissociation; exponential fit)” value (P68135) was 1.5±0.4 subunits/s.
For “Actin purified from rabbit muscle (from UniProt P68135 1-377) (natural protein)”, the depolymerization velocity of ADP-actin subunits at the barbed end (direct fit of length against time) [1] was 6 subunits/s and the depolymerization velocity of ADP-actin subunits at the barbed end (exponential fit) [1] was 6.2 subunits/s.
With “profilin-actin (from UniProt P62962 1-140; P68135 1-377) (complex)” the koff [2] was 51.6 s⁻¹ and the koff [3] was 4.7 s⁻¹.
